In series [1] the target is T1, NF-kB p50 subunit (UniProt P19838 P19838:1-433). In words: footprint; DNase I protection, similar results to phosphorothioate substrate. As to conditions: tags: recombinant, Promega; chain copies: 2 inferred. Here is the method:
(§1) The labeled DNA substrate (50 fmol), poly dI-dC (1 ug, to reduce non-specific protein-DNA interactions) and varying amounts of recombinant NFkβ (p50 subunit) were combined in a 20 uL volume and incubated for 30 min. at room temperature. Dnase 1 (2 Units in a volume of 2 uL, Promega Corp.) was then added and the incubation was continued for an additional 30 min. at room temperature. The reaction was terminated and the biotin-labeled DNA sequences captured by in the addition of 10 µg of streptavidin Dynabeads (IGEN, International) in 0.3 ml PBS-1 containing 0.2 M EDTA, followed by incubation for 15 minutes. The reaction mixture was introduced into an ORIGEN Analyzer (IGEN International) running in Magnetic Capture Mode and the ECL signal from RuBpy on the magnetic beads was determined in the presence of a solution containing tripropylamine (ORIGEN Assay Buffer, IGEN International). A control was also run in the absence of Dnase to determine the ECL signal obtained from the uncleaved substrate. […] The addition of NFkβ gave a dose dependent increase in signal relative to that obtained from unprotected DNA, the magnitude of which approached, for high concentrations of NFkβ, the signal obtained in the absence of DNAse. The experiment was repeated with an DNA substrate with the same nucleotide sequence but containing only phosphodiester linkages and similar results were obtained.

For series [2], the target named is T1, NF-kB p50 subunit. In words: footprint; DNase I protection with ECL readout; dose dependent, signal 1729305 at 7 ng vs 96862 unprotected and 2591957 without DNase; poly dI-dC, room temperature. As to conditions: tags: recombinant, Promega; chain copies: 2 inferred. The protocol:
as §1

The next series has as its target AP-2 (UniProt P05549 P05549:1-437). Briefly: footprint; ECL 32289 vs 54041 unprotected; no DNase protection. The conditions noted are these: chain copies: 2. Here is the method: (§2) The labeled DNA substrate (50 fmol), poly dI-dC (1 ug, to reduce non-specific protein-DNA interactions) and varying amounts of recombinant NFkβ (p50 subunit) were combined in a 20 uL volume and incubated for 30 min. at room temperature. Dnase 1 (2 Units in a volume of 2 uL, Promega Corp.) was then added and the incubation was continued for an additional 30 min. at room temperature. The reaction was terminated and the biotin-labeled DNA sequences captured by in the addition of 10 µg of streptavidin Dynabeads (IGEN, International) in 0.3 ml PBS-1 containing 0.2 M EDTA, followed by incubation for 15 minutes. The reaction mixture was introduced into an ORIGEN Analyzer (IGEN International) running in Magnetic Capture Mode and the ECL signal from RuBpy on the magnetic beads was determined in the presence of a solution containing tripropylamine (ORIGEN Assay Buffer, IGEN International). A control was also run in the absence of Dnase to determine the ECL signal obtained from the uncleaved substrate. […]
(§3) The specificity of the assay was determined by replacing the specific binding protein NFkβ with other DNA binding proteins specific for sequences not present on the DNA substrate (the phosphorothioate containing substrate was used).

In a further series the target is SP-1 (UniProt P08047 P08047:2-785). Briefly: footprint; ECL 38880 vs 54041 unprotected; no DNase protection. Here is the method:
as §2, §3

T1 sequence (P19838 1-433, one chain of several): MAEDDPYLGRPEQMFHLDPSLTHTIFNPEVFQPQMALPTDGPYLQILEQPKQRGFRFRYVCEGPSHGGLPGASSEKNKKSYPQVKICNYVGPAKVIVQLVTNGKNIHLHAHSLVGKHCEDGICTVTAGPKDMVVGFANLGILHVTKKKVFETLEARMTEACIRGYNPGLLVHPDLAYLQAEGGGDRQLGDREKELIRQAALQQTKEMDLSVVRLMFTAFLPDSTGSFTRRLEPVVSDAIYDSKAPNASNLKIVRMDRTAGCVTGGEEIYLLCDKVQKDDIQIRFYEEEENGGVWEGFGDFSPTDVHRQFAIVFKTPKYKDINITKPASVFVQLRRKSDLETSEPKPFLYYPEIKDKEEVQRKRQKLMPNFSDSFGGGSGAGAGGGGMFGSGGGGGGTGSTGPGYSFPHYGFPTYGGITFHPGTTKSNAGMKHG
Sequence of SP-1 (P08047 2-785, one chain of several): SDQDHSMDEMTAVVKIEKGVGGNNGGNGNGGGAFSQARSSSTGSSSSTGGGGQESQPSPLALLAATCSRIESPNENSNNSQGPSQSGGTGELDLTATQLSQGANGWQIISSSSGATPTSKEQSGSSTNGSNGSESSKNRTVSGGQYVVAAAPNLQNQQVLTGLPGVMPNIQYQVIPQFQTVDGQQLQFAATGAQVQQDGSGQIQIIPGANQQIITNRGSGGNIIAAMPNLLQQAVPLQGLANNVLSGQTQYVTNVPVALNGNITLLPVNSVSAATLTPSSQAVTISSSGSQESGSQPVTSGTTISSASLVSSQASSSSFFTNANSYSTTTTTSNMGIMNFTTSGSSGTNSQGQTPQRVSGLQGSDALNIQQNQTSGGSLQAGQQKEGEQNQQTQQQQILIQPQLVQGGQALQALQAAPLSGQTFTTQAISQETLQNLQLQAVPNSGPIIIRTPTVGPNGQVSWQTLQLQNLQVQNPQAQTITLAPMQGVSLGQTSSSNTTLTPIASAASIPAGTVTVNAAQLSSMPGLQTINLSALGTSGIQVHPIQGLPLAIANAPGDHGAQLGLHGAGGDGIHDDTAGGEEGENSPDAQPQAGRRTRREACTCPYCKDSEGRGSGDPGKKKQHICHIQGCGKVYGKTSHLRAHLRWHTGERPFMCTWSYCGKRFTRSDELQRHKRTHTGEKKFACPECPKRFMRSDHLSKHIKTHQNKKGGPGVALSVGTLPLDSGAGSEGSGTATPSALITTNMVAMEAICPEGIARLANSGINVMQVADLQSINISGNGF
Sequence of AP-2 (P05549 whole entry, one chain of several): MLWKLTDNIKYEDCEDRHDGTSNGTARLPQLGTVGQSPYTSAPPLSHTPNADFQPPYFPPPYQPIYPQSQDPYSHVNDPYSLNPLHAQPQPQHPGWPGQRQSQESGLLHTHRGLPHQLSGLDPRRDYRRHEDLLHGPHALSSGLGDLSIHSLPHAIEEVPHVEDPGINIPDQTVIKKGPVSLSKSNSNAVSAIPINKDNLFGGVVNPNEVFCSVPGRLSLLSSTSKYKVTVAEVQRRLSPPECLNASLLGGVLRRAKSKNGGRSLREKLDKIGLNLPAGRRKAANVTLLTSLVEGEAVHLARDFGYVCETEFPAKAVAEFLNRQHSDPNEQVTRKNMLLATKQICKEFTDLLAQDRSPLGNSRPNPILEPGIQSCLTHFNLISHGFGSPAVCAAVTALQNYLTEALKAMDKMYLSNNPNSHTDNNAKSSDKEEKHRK

B1: NF-kB consensus substrate, all phosphodiester (dsDNA)
DNA 1: AGTTGAGGGGACTTTCCCAGGC
DNA 2: GCCTGGGAAAGTCCCCTCAACT
For the molecule B1, in the series with NF-kB p50 subunit [1], the binding result is recorded as “binds”.

B2: NF-kB consensus substrate, phosphorothioate (dsDNA)
DNA 1: AGTTGAGGGGACTTTCCCAGGC
DNA 2: GCCTGGGAAAGTCCCCTCAACT
modifications: PS within bracketed nucleotides AGTTGAGG (5') and CCCAGGC (3') of the labelled strand
Turning to B2, the binding result is “binds” with NF-kB p50 subunit [2], “no binding” with AP-2 and “no binding” with SP-1.

For the origin of these results see patent US20080254465, “Assays for measuring nucleic acid binding proteins and enzyme activities” (BioVeris Corporation, published 2008).
